# From patent US20130244232A1, “HIGH-EFFICIENCY CATALYSTS, PREPARATION AND USE THEREOF” (priority 2012, published 2013)
# Read-outs that look alike come from different tables or passages of the source.
# Key:
# [1] = in the presence of lactoperoxidase; cited from earlier work
# [2] = ABTS oxidation with H2O2, pH 7.0; cited from earlier work
# [3] = Peroxidase activity: ABTS oxidation with H2O2 (formation of ABTS+• radical cation at 660 nm); format: biochemical; settings: for Specific activity: ABTS oxidation with H2O2, pH 6.5
# Experimental: The peroxidase activity of the compound on the secondary substrate ABTS was evaluated by following the formation of the ABTS^+• radical cation, in the presence of H2O2.
# The reaction was followed by using spectrophotometry, measuring the appearance of the products in the reaction medium. The formation of ABTS^+• cation radical was followed at 660 nm (λmax (ε)=660 nm (1.40×10^4 M^−1cm^−1)). The reaction was performed in 50% TFE (v/v) 100 mM phosphate buffer, pH 6.5, using a 2.0×10^−7 M catalyst concentration.
# Kinetic parameters of the compound were determined by varying the H2O2 concentration using fixed concentrations of the reducing substrates, and vice versa.
# In more details, in the experiments performed at various H2O2 concentrations (in the range 0.01÷ 200 mM) the ABTS concentration was kept constant at 0.1 mM. In the experiments performed at various ABTS concentrations (in the range 0.005÷ 0.1 mM) the H2O2 concentration was 50 mM.
# The experiments were performed in 50% TFE (v/v) 100 mM phosphate buffer, pH 6.5. As described in the example 10, the catalytic process was evaluated by following the formation of the ABTS^+• radical cation at 660 nm (c=[…] cm^−1). Kinetic parameters of the compound were determined by varying the H2O2 concentration using fixed concentrations of the reducing substrates, and vice versa.
# In more details, in the first experiment the ABTS and the conjugate concentrations were kept constant at 0.1 mM and 2 10^−7 M, respectively, and the H2O2 concentration was varied in the range 10-100 mM. In the second experiment, the H2O2 and the conjugate concentrations were fixed at 50 mM and 2 10^−7 M, respectively, and the ABTS concentration was varied in the range 0.005÷ 0.1 mM.
# [4] = Peroxidase activity: guaiacol oxidation with H2O2 (tetraguaiacol formation at 470 nm); format: biochemical
# Experimental: The peroxidase activity on the guaiacol substrate was evaluated by following the formation of guaiacol oxidation product, tetraguaiacol. Changes in the absorbance at 470 nm were measured, considering a ε470=2.66×10^4 M^−1cm^−1.
# In details, in the experiments performed at various H2O2 concentrations (in the range 1÷ 40 mM), the guaiacol concentration was kept constant at 0.1 mM. In the experiments performed at various guaiacol concentrations, in the range 0.0025÷ 0.07 mM, the H2O2 concentration was 10 mM.
# [5] = Phenol nitration (NaNO2/H2O2), HPLC analysis; format: biochemical; settings: 40 min, room temperature, substrate and oxidant 1.0 mM, 40 mM NO2−, 0.2 μM catalyst, pH 6.5, 50% TFE
# Experimental: For the compound Fe(III)-3,7,12,17-tetramethyl-porphyrin-2(18)-N9epsilon-(Ace-Asp1-Glu2-Gln3-Gln4-Leu5-His6-Ser7-Gln8-Lys9-Arg10-Lys11-Ile12-Thr13-Leu14-NH2)-18(2)-N9epsilon-(Ace-Asp1-Glu2-Gln3-Gln4-Leu5-Ser6-Ser7-Gln8-Lys9-Arg10-NH2)-di-propionammide, whose synthesis is described in example 1, the ability to catalyze phenol nitration was evaluated. […] The concentrations of the starting material and products were determined from calibration curves constructed using commercial samples and 4-cyanophenol as internal standard. Standard incubation for phenol nitration were performed at 1 mM phenol in the presence of 0.2 μM catalyst, 20 mM NaNO2 and 3 mM H2O2 in phosphate buffer, pH 6.5, 50% TFE (v/v).
# The reactions were performed at room temperature with an incubation time of 40 min. […] The yield of 4- and 2-nitrophenol at 40 min reaction time increased by increasing H2O2 NO2″ and phenol concentrations. The maximum yield of nitrophenols (4- and 2-) was obtained at a substrate and oxidant concentrations of 1.0 mM, and at 40 mM NO2^− concentration, respectively.
# [6] = ABTS oxidation with H2O2, pH 6.5, 50% TFE (v/v) 100 mM phosphate buffer
# [7] = ABTS oxidation with H2O2, pH 6.5, 50% TFE (v/v) 100 mM phosphate buffer, read-out: Km^H2O2
# [8] = AH2 = ABTS, pH 6.5, 50% TFE (v/v) 100 mM phosphate buffer, read-out: Km^AH2
Substance,Specific activity [3],"kcat [3, 6]","Km [3, 7]","Km [3, 8]",other results
lactoperoxidase,–,–,–,–,total yield of nitrophenols relative to the compound of example 1 [1]: fourfold higher
H-VQKCAQCHTVE-OH (cysteine pairing not given here) [MP11],–,–,–,–,Specific activity [2]: 0.000419 mol/g/min; kcat [2]: 0.013 s⁻¹
"Fe(III)-3,7,12,17-tetramethyl-porphyrin-2(18)-N9epsilon-(Ace-Asp1-Glu2-Gln3-Gln4-Leu5-His6-Ser7-Gln8-Lys9-Arg10-Lys11-Ile12-Thr13-Leu14-NH2)-18(2)-N9epsilon-(Ace-Asp1-Glu2-Gln3-Gln4-Leu5-Ser6-Ser7-Gln8-Lys9-Arg10-NH2)-di-propionammide [Example 1]",6.269 mol/g/min,370.9 ± 14 s⁻¹,44000 µM,84 µM,"kcat ([3]; ABTS oxidation with H2O2, pH 6.5, 50% TFE (v/v) 100 mM phosphate buffer, listed as Esempio 1): 371 s⁻¹; Km ([3]; AH2 = ABTS, pH 6.5, 50% TFE, 2.0×10^−7 M catalyst, read-out: Km^AH2): 84 ± 2 µM; specific activity for ABTS oxidation ([3]; pH=6.5): 104 mmol/g/s; Km ([4]; AH2 = guaiacol): 9.2 ± 0.4 µM; kcat ([4]; guaiacol oxidation with H2O2): 8.0 ± 0.1 s⁻¹; specific activity for guaiacol oxidation relative to horseradish peroxidase ([4]; versus horseradish peroxidase): two times higher; total yield of nitrophenols (4- and 2-) [5]: about 14.8%"
"H-Cys-Ala-Gln-Cys-His-Thr-Val-Glu-OH (CAQCHTVE; heme covalently attached; printed: Cys-Ala-Gln-Cys-His-Thr-Val-Glu-) [MP8, microperoxidase, mono-adduct porphyrin obtained from proteolytic digestion of cytochromes c]",–,–,–,–,Specific activity [2]: 0.000104 mol/g/min; kcat [2]: 0.0026 s⁻¹
"3,7,12,17-tetramethyl-porphyrin-2(18)-N9epsilon-(Ace-Asp1-Glu2-Gln3-Gln4-Leu5-His6-Ser7-Gln8-Lys9-Leu10-Lys11-Ile12-Thr13-Leu14-NH2)-18(2)-N9epsilon-(Ace-Asp1-Glu2-Gln3-Gln4-Leu5-Ser6-Ser7-Gln8-Lys9-Arg10-NH2)-di-propionamide [Example 5]",11.72 mol/g/min,685 s⁻¹,54000 µM,38 µM,Specific activity ([3]; listed as Esempio 5): 11.716 mol/g/min
"3,7,12,17-tetramethylporphyrin-18(2)-propionicacid-2(18)-N9epsilon-(Ac-Asp1-Glu2-Gln3-Gln4-Leu5-His6-Ser7-Gln8-Lys9-Arg10-Lys11-Ile12-Thr13-Leu14-NH2)propionamide [Example 4]",17.86 mol/g/min,688 s⁻¹,80000 µM,130 µM,Specific activity ([3]; listed as Esempio 4): 17.860 mol/g/min
"3,7,12,17-tetramethyl-porphyrin-2 (18)-N9epsilon-(Ace-Asp1-Glu2-Gln3-Gln4-Leu5-His6-Ser7-Gln8-Lys9-Arg10-Lys11-Ile12-Thr13-Leu14-NH2)-18(2)-N9epsilon-(Ace-Asp1-Glu2-Gln3-Gln4-Leu5-Gly6-Ser7-Gln8-Lys9-Arg10-NH2)-di-propionamide [Example 7]",7.976 mol/g/min,468 s⁻¹,46000 µM,125 µM,–
"3,7,12,17-tetramethyl-porphyrin-2(18)-N9epsilon-(Ace-Asp1-Glu2-Gln3-Gln4-Leu5-His6-Ser7-Gln8-Lys9-Arg10-Lys11-Ile12-Thr13-Leu14-NH2)-18(2)-N9epsilon-(Ace-Asp1-Glu2-Gln3-Gln4-Leu5-Ser6-Ser7-Gln8-Lys9-Leu10-NH2)-di-propionamide [Example 9]",2.890 mol/g/min,169 s⁻¹,20000 µM,29 µM,–
"3,7,12,17-tetramethyl-porphyrin-2(18)-N9epsilon-(Ace-Asp1-Glu2-Gln3-Gln4-Leu5-His6-Ser7-Gln8-Lys9-Arg10-Lys11-Ile12-Thr13-Leu14-NH2)-18(2)-N9epsilon-(Ace-Asp1-Leu2-Gln3-Gln4-Leu5-Ser6-Ser7-Gln8-Lys9-Arg10-NH2)-di-propionamide [Example 8]",6.463 mol/g/min,381 s⁻¹,96000 µM,115 µM,–
